Consider 1 substance from patent US20110294167.

The subject of data set [1] is T1, ORF904 primase (residues 1-370) (Sulfolobus islandicus).
T1 sequence: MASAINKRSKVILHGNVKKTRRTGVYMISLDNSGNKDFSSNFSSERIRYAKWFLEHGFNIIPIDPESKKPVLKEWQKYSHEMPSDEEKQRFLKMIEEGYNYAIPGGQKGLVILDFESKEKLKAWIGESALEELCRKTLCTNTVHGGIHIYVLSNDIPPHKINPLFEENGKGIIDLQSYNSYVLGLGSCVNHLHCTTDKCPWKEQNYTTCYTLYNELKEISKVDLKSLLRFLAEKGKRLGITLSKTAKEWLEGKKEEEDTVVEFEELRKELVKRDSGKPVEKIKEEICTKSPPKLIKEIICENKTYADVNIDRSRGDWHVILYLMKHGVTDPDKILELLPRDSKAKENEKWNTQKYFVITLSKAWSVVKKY
To be noted: primer synthesis inferred from primer-free amplification with Phi29, 1500 ng primase vs Phi29 only; 10 mM MgCl2, 1 mM ATP, 30 C.

The target of data set [2] is T7 gp4 K318A primase (Bacteriophage T7) (UniProt P03692). To be noted: amplification with Phi29 and T7 DNA polymerase; 10 mM MgCl2, NTPs, 30 C.

For M13 ssDNA (M13mp18), the activity was 13 fold in data set [1] and 4000 fold in data set [2].
